This is an account of results in patent publication US7189506B1, “DNA binding compound-mediated molecular switch system” (Genelabs Technologies, Inc.).

For series [1], the system named is UL9-KRAB chimeric repressor (ULKRAB) (Herpes simplex virus type 1?). Put plainly: cell_activity. Conditions: 0.8 to 1 ug pULKRAB.
The subject of series [2] is UL9-VP16 chimeric activator (ULVP) (Herpes simplex virus type 1?). Put plainly: cell_activity. As to conditions: 25 ng pULVP, HeLa.
Another series has as its system p50 NF-κB. The series is described as follows: Gel mobility shift assay, displacement of p50 NF-kB. Format: binding. As to conditions: JF102 oligonucleotide. An excerpt: A purified Thioredoxin-p50 NF-kB fusion protein (p50C) (Genelabs Technologies, Inc.) was used to generate five oligonucleotides comprising an NF-kB DNA response element and one or two overlapping binding sites for the AT-rich binder, 21x.
The exemplified NF-kB binding sites, […] (SEQ ID NO:29) and […] (SEQ ID NO:30) are present in the Igk and IL-6 promoters, respectively.
Oligonucleotides JF101 (SEQ ID NO:31) and 102 (SEQ ID NO:32), have compound binding sequences overlapping the right side of the NF-kB DNA response element, while in the case of JF103 (SEQ ID NO:33), the overlaps are from both sides (FIG. 7).

Another series deals with LacR. Conditions: modified LacR DNA response sequence SEQ ID NO:35.
The target in series [3] is T1, GST-UL9 (UL9 C-terminal DNA-binding domain) (Herpes simplex virus type 1?, UniProt P10193 P10193:535-851). The series is described as follows: EMSA; 10 nM GST-UL9; 21x displacement most efficient with overlap at 3' end of site. As to conditions: tags: GST fusion, pGEX-UL9 (Genelabs); label: 32P.
T1 sequence (P10193 535-851, one chain of several): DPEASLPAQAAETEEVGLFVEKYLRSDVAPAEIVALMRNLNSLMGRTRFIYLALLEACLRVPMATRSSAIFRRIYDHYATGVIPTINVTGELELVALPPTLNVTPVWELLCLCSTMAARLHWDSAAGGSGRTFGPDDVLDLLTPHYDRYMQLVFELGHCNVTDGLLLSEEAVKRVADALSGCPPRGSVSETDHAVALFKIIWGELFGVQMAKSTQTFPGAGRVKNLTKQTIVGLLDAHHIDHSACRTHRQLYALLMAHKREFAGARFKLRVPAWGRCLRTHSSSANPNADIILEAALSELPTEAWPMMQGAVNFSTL
The target in series [4] is T2, LacR (lac repressor) (UniProt P03023 P03023:1-360). Put plainly: EMSA; displaced by 21x. Conditions: chain copies: 4; label: 32P. For orientation: A gel shift assay detects complexes by their altered migration in electrophoresis.
T2 sequence (P03023 whole entry, one chain of several): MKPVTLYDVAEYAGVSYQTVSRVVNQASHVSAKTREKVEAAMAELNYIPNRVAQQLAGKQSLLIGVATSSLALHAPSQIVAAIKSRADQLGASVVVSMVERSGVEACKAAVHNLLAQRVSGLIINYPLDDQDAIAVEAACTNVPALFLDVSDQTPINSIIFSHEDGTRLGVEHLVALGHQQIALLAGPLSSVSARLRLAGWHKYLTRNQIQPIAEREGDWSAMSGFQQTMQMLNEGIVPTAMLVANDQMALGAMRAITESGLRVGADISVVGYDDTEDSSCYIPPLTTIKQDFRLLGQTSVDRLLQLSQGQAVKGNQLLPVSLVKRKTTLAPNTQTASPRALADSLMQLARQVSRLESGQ
The target in series [5] is T2, LacR (lac repressor). Put plainly: EMSA; displaced by 21x more efficiently than by IPTG. Conditions: chain copies: 4; label: 32P.
The target of series [6] is T1, GST-UL9 (UL9 C-terminal DNA-binding …). The series is described as follows: EMSA; 10 nM GST-UL9, 20 mM HEPES pH 7.5, 50 mM KCl, RT; displaced by 21x. As to conditions: tags: GST fusion, pGEX-UL9 (Genelabs); label: 32P.

Take “p5Gal/p5GalE GAL4 response element (5 tandem repeats)”: the activity was 62 % of basal in series [1] (p5GalE control) and 2 fold in series [2] (p5Gal, not activated significantly). In the case of “p5UL/p5ULE UL9-21x response element (5 tandem repeats)”, the activity in series [1] (p5ULE, HeLa) is 5 % of basal; in series [2] (p5UL), 24 fold. Regarding `Cn1cc(NC(=O)c2cc(NC(=O)c3cc(NC=O)cn3C)cn2C)cc1C(=O)NCCC(=N)N` [distamycin], in the series with p50 NF-κB, the “NF-kB displacement efficiency, 21x versus distamycin” value was 21x displaces NF-kB more efficiently than distamycin.

In the case of `CC(C)S[C@@H]1O[C@H](CO)[C@H](O)[C@H](O)[C@H]1O` [IPTG], in the series with LacR, the “LacR displacement efficiency, 21x versus IPTG” value was 21x appears to displace LacR more efficiently than IPTG.

B1: YK 202RX (dsDNA)
DNA 1: CATGGACGCCACTGAGCCGTTTTTGTTCGCACTTTTTTTTGAGGCGAGTCGATGCACC
DNA 2: GGTGCATCGACTCGCCTCAAAAAAAAGTGCGAACAAAAACGGCTCAGTGGCGTCCATG
For B1, the binding result in series [3] is “binds”.

B2: lacO modified (symmetric) (dsDNA)
DNA 1: AAAAAATTGTGAGCGCTCACAATTTTTT
DNA 2: AAAAAATTGTGAGCGCTCACAATTTTTT
As for B2, the binding result with LacR (lac repressor) [4] is “binds”.

B3: lacO modified (dsDNA)
DNA 1: TTTTTTTTGTGAGCGGATAACAAAA
DNA 2: TTTTGTTATCCGCTCACAAAAAAAA
B3: the binding result with LacR (lac repressor) [5] is “binds”.

B4: YK 202RX-A (dsDNA)
DNA 1: CATGGACGCCACTGAGCCGTGTTCGCACTTTTTTTTGAGGCGAGTCGATGCACC
DNA 2: GGTGCATCGACTCGCCTCAAAAAAAAGTGCGAACACGGCTCAGTGGCGTCCATG
With B4, the binding result in series [3] was “binds”.

B5: YK 202LX (dsDNA)
DNA 1: CATGGACGCCACTGAGCCGTTTTTGTTCGCACTTGAGGCGAGTCGATGCACC
DNA 2: GGTGCATCGACTCGCCTCAAGTGCGAACAAAAACGGCTCAGTGGCGTCCATG
As for B5, in series [6], the binding result was “binds”.
